The RNAGym collection of RNA variant scans (doi:10.1073/pnas.2313332121)
This sample holds only a part of the variants without activity.

B1: TPR 5TU (parent)
chain: GGAUCUUCUCGAUCUAACAAAAAAGACAAAUCUGCCACAAAGCUUGAGAGCAUCUUCGGAUGCAGAGGCGGCAGCCUUCGGUGGCGCGAUAGCGCCAACGUUCUCAACUAUGACACGCAAAACGCGUGCUCCGUUGAAUGGAGUUUAUCAUG

Variants of: B1
Test: polymerase ribozyme fitness, log enrichment relative to wild type (log ratio); higher = more active; in vitro selection for triplet polymerase activity
Outline: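 Mutant libraries of both subunits of a heterodimeric triplet polymerase ribozyme were PCR-built, transcribed, and selected once in triplicate, with frozen incubation at −7 °C and capture of gel-excised extended constructs on streptavidin beads before RT-PCR. Illumina sequencing of input and output libraries was filtered to genotypes with ≥10 input reads and ≥1 read per output. Fitness is the logarithm of genotype enrichment over wild-type enrichment, using inverse-variance-weighted replicate averages. The logarithm is base 2.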

Variant | polymerase ribozyme fitness (log ratio)
A3U U82G | -0.249
C5U U45A A47C G62U C69U | ≤ -4.2
U4G A20G C35U G94C A97G C118A A137G A142U | -4.11
U4A A16G A37U A91G G124U | ≤ -4.2
C5U U6G C14U A20C A26U A37C A66U A120G | ≤ -4.2
U4C C51U C96A A121C U134A | -3.3
C5A A28G G34C G74A U82A G86A C93A A97C | ≤ -4.2
U4C C5G U55A C75A G88C G133U | -4.17
U4C C5A A24U A41G G46C C85U C96G | -3.3
C5A C36U C79U A121G | ≤ -4.2
C5U A16C A17U C27U A49C U55G | ≤ -4.2
U6A A17U G65A G83A G84U C87A G100A G141A | ≤ -4.2
U4G A26U G50U C87A G141A A150U | ≤ -4.2
C5U A47G C79A A138G | ≤ -4.2
C5G A23G A49U U77G G86A A137G | ≤ -4.2
U4C C87G A107G | ≤ -4.2
A3U C54A | -2.21
C5A C27A C87A U109A G126A | ≤ -4.2
C5G A52G G80A | -1.81
U6A C14U G65U A91G U148A | ≤ -4.2
U6A A20G U56A G88U U102A C103G C132A U146G | ≤ -4.2

Variant | polymerase ribozyme fitness (log ratio)
C5G A49G U61A C85G | ≤ -4.2
C5A A21C C35U G74C G128U U139G | ≤ -4.2
U4C A52G G58U | -0.303
U4C U9A A41C G48C C51A G68A G83C | ≤ -4.2
C5A A20G A22C C35A U77G C87A A115C G124C | ≤ -4.2
C5G U53A U56A G68C G94A C118U U148A A150C | ≤ -4.2
A3U G59C | -0.00695
C5G G84U | -2.38
C5A C10U A41C A49C U139G U151G | ≤ -4.2
U6A A16C A20G G62C A91U A110U | ≤ -4.2
C5U A16U C87A A106C | ≤ -4.2
C5U U82A C103G A113U A137C U148A | ≤ -4.2
U6A A20U C27U G46A C87A | ≤ -4.2
U4G U6G A22C A73G G83C | ≤ -4.2
U6A A19C A24U A28G G141C G152A | -3.96
C5G U90G C93A C116G A142C | ≤ -4.2
C5G A52C G58A C93A C118U | -3.09
C5G C35U G59C C87U G100U C125G G133A U145C | ≤ -4.2
C5A A17U U56A U127A | -4.16
C5A A21C G74A U82G G92U | ≤ -4.2
C5U A22C G83C C93U U101G C116A | -2.06

Variant | polymerase ribozyme fitness (log ratio)
U4A C76G A91U A115U | ≤ -4.2
U4A C8G U53G G71U A73G C79G C85G C87A G88U G92U A115G | ≤ -4.2
A3U G143U | -2.76
U4G U7C A16G C96G | -2.73
C5A A113U | -2.74
U4G A41C A137C | ≤ -4.2
U4G G84U A107U G140A | ≤ -4.2
C5A A16C A19U U61A | -2.61
U4G G11C A40U G50C G83U | ≤ -4.2
C5A C76U G84U C125U G141U | -3.64
C5A A22U C75U C76A G88A A89C A91G C105U A119G U144G | ≤ -4.2
U4A U6G A22U U31G C35U U56A G68C C95U C125G U144C | ≤ -4.2
C5U U9C A29C C93U C103U G126U | ≤ -4.2
A3U G59A C99U U144C A150G | ≤ -4.2
C5A A26G C36A C96A | ≤ -4.2
C5A C54A C57A G58A G68A A89U C95G | ≤ -4.2
U6A A28C U44A U45A A49U C85G U144A | ≤ -4.2
U4A C93A | -1.38
C5A U7G C32G A115U U146C | ≤ -4.2
U4C A20U A29U G46C C54U C85U C116U | ≤ -4.2
C5U U33A C38U C57G C93U A98U | ≤ -4.2

Variant | polymerase ribozyme fitness (log ratio)
C5A C93G | -2.32
U4G A12U A39C G62A C76U C87G A91U | ≤ -4.2
C5U A23U A24C G46A C96U A137U | ≤ -4.2
U4A U6A A17U A30U C105U U134G | ≤ -4.2
U6A A39U U101G C118G | ≤ -4.2
C5G A30C G81U A138C U144C | ≤ -4.2
U4C G50C U56A G74A C87A G88U C116U | ≤ -4.2
C5A C57A A119U A137G U146G | -2.37
A3U G58A C87G U101C A113U C131G | ≤ -4.2
C5G A16G A21U C93U U101G A110C C116U G124C | ≤ -4.2
U6A A47C G59U G81A C95G G141C | ≤ -4.2
C5A U6G G46A U56A U82C C93A A107G C125U G136U | ≤ -4.2
A3U G58C G59C C96U C131A | -3.63
U6A A19G C38G U61A G94C C103G | ≤ -4.2
A3U U45A C96A | -3.51
C5A A28U | -3.92
C5G C76U | -0.335
U6A A41C G50C G84A A119G | -3.27
U4G U31A C54U G86C G92U U148G | ≤ -4.2
C5A U13C C38U A121G U127C | -4.07
A3U U55A | -0.84
